Test results published in US20260209386A1 (MYTHIC THERAPEUTICS, published 2026).

B1: MYT6269 (antibody, V domains shown)
VH: QVQLVESGGGVVQPGRSLRLSCAASGFTFSSYGMHWVRQAPGKGLEWVAVIWDDGSNKYYVDSVKGRFTISRDNSKNTLYLQMNSLRAEDTAVYYCARDDYYGSGSFNSYYGTHVWGQGTTVTVSS
VL: EIVLTQSPATLSLSPGERATLSCRASQSVSIYLAWYQQKPGQAPRLLIYDASNRATGIPARFSGSGSGTDFTLTISSLEPEDFAVYYCQQRSNWPPFTFGPGTKVDIK
notes: IgG
B2: MYT11349 (antibody, V domains shown)
VH: EVQLVESGGGLVQPGGSLRLSCTASGIDLSNYAVIWVRQAPGKGLEWVGHIYTYDTTYYANWAKGRFTISRDTSKNTVYLQMNSLRAEDTAVYFCARSFSDISDLIKLWGQGTLVTVSS
VL: EIVMTQSPSTLSASVGDRVIITCQASQSLYNNKDLAWYQQKPGKAPKLLIYEASKLASGVPSRFSGSGSGAEFTLTISSLQPDDFATYYCLGEFSCGSGDCLAFGQGTKLTVL
notes: MYT9797 HC variant; captured via anti-human Fc
B3: MYT11352 (antibody, V domains shown)
VH: EVQLVESGGGLVQPGGSLRLSCTASGIDLSNYAVIWVRQAPGKGLEWVGIIYHYDTTYYANWAKGRFTISRDTSKNTVYLQMNSLRAEDTAVYFCARSFSDISDLIKLWGQGTLVTVSS
VL: EIVMTQSPSTLSASVGDRVIITCQASQSLYNNKDLAWYQQKPGKAPKLLIYEASKLASGVPSRFSGSGSGAEFTLTISSLQPDDFATYYCLGEFSCGSGDCLAFGQGTKLTVL
notes: as for B2
B4: MYT11354 (antibody, V domains shown)
VH: EVQLVESGGGLVQPGGSLRLSCTASGIDLSNYAVIWVRQAPGKGLEWVGIIYTYHTTYYANWAKGRFTISRDTSKNTVYLQMNSLRAEDTAVYFCARSFSDISDLIKLWGQGTLVTVSS
VL: EIVMTQSPSTLSASVGDRVIITCQASQSLYNNKDLAWYQQKPGKAPKLLIYEASKLASGVPSRFSGSGSGAEFTLTISSLQPDDFATYYCLGEFSCGSGDCLAFGQGTKLTVL
notes: as for B2
B5: MYT11355 (antibody, V domains shown)
VH: EVQLVESGGGLVQPGGSLRLSCTASGIDLSNYAVIWVRQAPGKGLEWVGIIYTYDHTYYANWAKGRFTISRDTSKNTVYLQMNSLRAEDTAVYFCARSFSDISDLIKLWGQGTLVTVSS
VL: EIVMTQSPSTLSASVGDRVIITCQASQSLYNNKDLAWYQQKPGKAPKLLIYEASKLASGVPSRFSGSGSGAEFTLTISSLQPDDFATYYCLGEFSCGSGDCLAFGQGTKLTVL
notes: as for B2
B6: MYT11356 (antibody, V domains shown)
VH: EVQLVESGGGLVQPGGSLRLSCTASGIDLSNYAVIWVRQAPGKGLEWVGIIYTYDTHYYANWAKGRFTISRDTSKNTVYLQMNSLRAEDTAVYFCARSFSDISDLIKLWGQGTLVTVSS
VL: EIVMTQSPSTLSASVGDRVIITCQASQSLYNNKDLAWYQQKPGKAPKLLIYEASKLASGVPSRFSGSGSGAEFTLTISSLQPDDFATYYCLGEFSCGSGDCLAFGQGTKLTVL
notes: as for B2
B7: MYT11357 (antibody, V domains shown)
VH: EVQLVESGGGLVQPGGSLRLSCTASGIDLSNYAVIWVRQAPGKGLEWVGIIYTYDTTHYANWAKGRFTISRDTSKNTVYLQMNSLRAEDTAVYFCARSFSDISDLIKLWGQGTLVTVSS
VL: EIVMTQSPSTLSASVGDRVIITCQASQSLYNNKDLAWYQQKPGKAPKLLIYEASKLASGVPSRFSGSGSGAEFTLTISSLQPDDFATYYCLGEFSCGSGDCLAFGQGTKLTVL
notes: as for B2
B8: MYT11363 (antibody, V domains shown)
VH: EVQLVESGGGLVQPGGSLRLSCTASGIDLSNYAVIWVRQAPGKGLEWVGIIYTYDTTYYANWAHGRFTISRDTSKNTVYLQMNSLRAEDTAVYFCARSFSDISDLIKLWGQGTLVTVSS
VL: EIVMTQSPSTLSASVGDRVIITCQASQSLYNNKDLAWYQQKPGKAPKLLIYEASKLASGVPSRFSGSGSGAEFTLTISSLQPDDFATYYCLGEFSCGSGDCLAFGQGTKLTVL
notes: as for B2
B9: MYT11369 (antibody, V domains shown)
VH: EVQLVESGGGLVQPGGSLRLSCTASGIDLSNYAVIWVRQAPGKGLEWVGIIYTYDTTYYANWAKGRFTISRDTSKNTVYLQMNSLRAEDTAVYFCARSFHDISDLIKLWGQGTLVTVSS
VL: EIVMTQSPSTLSASVGDRVIITCQASQSLYNNKDLAWYQQKPGKAPKLLIYEASKLASGVPSRFSGSGSGAEFTLTISSLQPDDFATYYCLGEFSCGSGDCLAFGQGTKLTVL
notes: as for B2
B10: MYT11376 (antibody, V domains shown)
VH: EVQLVESGGGLVQPGGSLRLSCTASGIDLSNYAVIWVRQAPGKGLEWVGIIYTYDTTYYANWAKGRFTISRDTSKNTVYLQMNSLRAEDTAVYFCARSFSDISDLIHLWGQGTLVTVSS
VL: EIVMTQSPSTLSASVGDRVIITCQASQSLYNNKDLAWYQQKPGKAPKLLIYEASKLASGVPSRFSGSGSGAEFTLTISSLQPDDFATYYCLGEFSCGSGDCLAFGQGTKLTVL
notes: as for B2
B11: MYT11380 (antibody, V domains shown)
VH: EVQLVESGGGLVQPGGSLRLSCTASGIDLSNYAVIWVRQAPGKGLEWVGIIYTYATTYYANWAKGRFTISRDTSKNTVYLQMNSLRAEDTAVYFCARSFSDISDLIKLWGQGTLVTVSS
VL: EIVMTQSPSTLSASVGDRVIITCQASQSLYNNKDLAWYQQKPGKAPKLLIYEASKLASGVPSRFSGSGSGAEFTLTISSLQPDDFATYYCLGEFSCGSGDCLAFGQGTKLTVL
notes: MYT9797 HC alanine variant; captured via anti-human Fc
B12: MYT11390 (antibody, V domains shown)
VH: EVQLVESGGGLVQPGGSLRLSCTASGIDLSNYAVIWVRQAPGKGLEWVGIIYTYDTTYYANWAKGRFTISRDTSKNTVYLQMNSLRAEDTAVYFCARSFSDISDLIKLWGQGTLVTVSS
VL: EIVMTQSPSTLSASVGDRVIITCQASQSLYHNKDLAWYQQKPGKAPKLLIYEASKLASGVPSRFSGSGSGAEFTLTISSLQPDDFATYYCLGEFSCGSGDCLAFGQGTKLTVL
notes: MYT9797 LC variant; captured via anti-human Fc
B13: MYT11392 (antibody, V domains shown)
VH: EVQLVESGGGLVQPGGSLRLSCTASGIDLSNYAVIWVRQAPGKGLEWVGIIYTYDTTYYANWAKGRFTISRDTSKNTVYLQMNSLRAEDTAVYFCARSFSDISDLIKLWGQGTLVTVSS
VL: EIVMTQSPSTLSASVGDRVIITCQASQSLYNNHDLAWYQQKPGKAPKLLIYEASKLASGVPSRFSGSGSGAEFTLTISSLQPDDFATYYCLGEFSCGSGDCLAFGQGTKLTVL
notes: as for B12
B14: MYT11393 (antibody, V domains shown)
VH: EVQLVESGGGLVQPGGSLRLSCTASGIDLSNYAVIWVRQAPGKGLEWVGIIYTYDTTYYANWAKGRFTISRDTSKNTVYLQMNSLRAEDTAVYFCARSFSDISDLIKLWGQGTLVTVSS
VL: EIVMTQSPSTLSASVGDRVIITCQASQSLYNNKHLAWYQQKPGKAPKLLIYEASKLASGVPSRFSGSGSGAEFTLTISSLQPDDFATYYCLGEFSCGSGDCLAFGQGTKLTVL
notes: as for B12
B15: MYT11394 (antibody, V domains shown)
VH: EVQLVESGGGLVQPGGSLRLSCTASGIDLSNYAVIWVRQAPGKGLEWVGIIYTYDTTYYANWAKGRFTISRDTSKNTVYLQMNSLRAEDTAVYFCARSFSDISDLIKLWGQGTLVTVSS
VL: EIVMTQSPSTLSASVGDRVIITCQASQSLYNNKDHAWYQQKPGKAPKLLIYEASKLASGVPSRFSGSGSGAEFTLTISSLQPDDFATYYCLGEFSCGSGDCLAFGQGTKLTVL
notes: as for B12
B16: MYT11396 (antibody, V domains shown)
VH: EVQLVESGGGLVQPGGSLRLSCTASGIDLSNYAVIWVRQAPGKGLEWVGIIYTYDTTYYANWAKGRFTISRDTSKNTVYLQMNSLRAEDTAVYFCARSFSDISDLIKLWGQGTLVTVSS
VL: EIVMTQSPSTLSASVGDRVIITCQASQSLYNNKDLAWYQQKPGKAPKLLIYHASKLASGVPSRFSGSGSGAEFTLTISSLQPDDFATYYCLGEFSCGSGDCLAFGQGTKLTVL
notes: as for B12
B17: MYT11398 (antibody, V domains shown)
VH: EVQLVESGGGLVQPGGSLRLSCTASGIDLSNYAVIWVRQAPGKGLEWVGIIYTYDTTYYANWAKGRFTISRDTSKNTVYLQMNSLRAEDTAVYFCARSFSDISDLIKLWGQGTLVTVSS
VL: EIVMTQSPSTLSASVGDRVIITCQASQSLYNNKDLAWYQQKPGKAPKLLIYEAHKLASGVPSRFSGSGSGAEFTLTISSLQPDDFATYYCLGEFSCGSGDCLAFGQGTKLTVL
notes: as for B12
B18: MYT11409 (antibody, V domains shown)
VH: EVQLVESGGGLVQPGGSLRLSCTASGIDLSNYAVIWVRQAPGKGLEWVGIIYTYDTTYYANWAKGRFTISRDTSKNTVYLQMNSLRAEDTAVYFCARSFSDISDLIKLWGQGTLVTVSS
VL: EIVMTQSPSTLSASVGDRVIITCQASQSLYNNKDLAWYQQKPGKAPKLLIYEASKLASGVPSRFSGSGSGAEFTLTISSLQPDDFATYYCLGEFSCGHGDCLAFGQGTKLTVL
notes: as for B12

molecular target: T1, Human PTK7/CCK4 Protein, His Tag, Acro Biosystems PT7-H52H3 (human, UniProt Q13308 31-704); test: BLI, antibody on anti-human Fc sensor
T1 construct: bought protein; also called Human PTK7 Protein, His Tag, Acro Biosystems; not shown: His tag
T1 sequence: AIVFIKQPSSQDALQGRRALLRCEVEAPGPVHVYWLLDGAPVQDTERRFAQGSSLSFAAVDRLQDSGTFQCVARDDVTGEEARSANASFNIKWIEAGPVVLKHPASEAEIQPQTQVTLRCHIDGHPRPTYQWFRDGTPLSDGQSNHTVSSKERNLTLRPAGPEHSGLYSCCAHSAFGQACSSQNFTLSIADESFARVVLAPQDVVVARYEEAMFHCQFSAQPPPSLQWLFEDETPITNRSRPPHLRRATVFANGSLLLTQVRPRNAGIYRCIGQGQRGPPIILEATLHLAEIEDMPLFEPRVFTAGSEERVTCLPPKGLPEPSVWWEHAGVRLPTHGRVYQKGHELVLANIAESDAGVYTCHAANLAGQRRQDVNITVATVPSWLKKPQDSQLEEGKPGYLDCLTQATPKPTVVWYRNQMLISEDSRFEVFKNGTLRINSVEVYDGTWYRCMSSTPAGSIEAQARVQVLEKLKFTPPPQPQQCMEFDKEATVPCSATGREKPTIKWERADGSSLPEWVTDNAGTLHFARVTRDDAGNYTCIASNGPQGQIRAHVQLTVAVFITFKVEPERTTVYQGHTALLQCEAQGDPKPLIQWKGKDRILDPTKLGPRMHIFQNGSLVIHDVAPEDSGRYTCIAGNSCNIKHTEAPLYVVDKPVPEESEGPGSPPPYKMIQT

Row | Binder | binding result
1 | B1 | no binding (tested: 50 nM PTK7)

molecular target: T2, Human PTK7 Protein, His Tag (Acro Biosystems) (human, UniProt Q13308 31-704); test: BLI, antibody on anti-human Fc sensor, 50 nM PTK7 at pH 7.4, dissociation at pH 7.4 or 5.4; 1 = pH dependent binding relative to parent
T2 construct: Bought recombinant protein; also called CCK4; tyrosine-protein kinase-like 7; not shown: His tag
T2 sequence: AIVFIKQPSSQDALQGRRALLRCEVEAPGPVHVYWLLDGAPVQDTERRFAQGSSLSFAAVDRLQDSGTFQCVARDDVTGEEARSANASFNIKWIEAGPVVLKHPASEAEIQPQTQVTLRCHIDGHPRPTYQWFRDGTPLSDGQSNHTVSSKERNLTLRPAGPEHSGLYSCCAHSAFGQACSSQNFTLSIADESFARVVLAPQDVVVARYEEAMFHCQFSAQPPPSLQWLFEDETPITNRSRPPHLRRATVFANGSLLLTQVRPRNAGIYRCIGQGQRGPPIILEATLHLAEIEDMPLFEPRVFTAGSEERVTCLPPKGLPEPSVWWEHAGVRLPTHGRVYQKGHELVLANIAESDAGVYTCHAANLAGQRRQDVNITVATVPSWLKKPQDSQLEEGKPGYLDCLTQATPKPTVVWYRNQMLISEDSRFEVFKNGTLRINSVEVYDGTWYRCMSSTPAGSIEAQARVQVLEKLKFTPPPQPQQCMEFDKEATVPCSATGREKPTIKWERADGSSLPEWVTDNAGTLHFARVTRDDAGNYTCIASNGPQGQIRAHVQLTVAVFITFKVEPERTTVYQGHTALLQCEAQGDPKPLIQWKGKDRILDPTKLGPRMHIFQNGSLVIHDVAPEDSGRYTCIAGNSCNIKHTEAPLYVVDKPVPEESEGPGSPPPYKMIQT

Row | Binder | binding result
2 | B2 | binds
3 | B3 | binds
4 | B4 | binds
5 | B5 | binds
6 | B6 | binds
7 | B7 | binds
8 | B8 | binds
9 | B9 | binds
10 | B10 | binds
11 | B11 | binds
12 | B12 | binds
13 | B13 | binds
14 | B14 | binds
15 | B15 | binds
16 | B16 | binds
17 | B17 | binds
18 | B18 | binds
